From IntAct's records for PubMed 20802461

B1: Mitogen-activated protein kinase ERK-A (Drosophila melanogaster (Fruit fly)), P40417 (parent)
chain: MEEFNSSGSVVNGTGSTEVPQSNAEVIRGQIFEVGPRYIKLAYIGEGAYGMVVSADDTLTNQRVAIKKISPFEHQTYCQRTLREITILTRFKHENIIDIRDILRVDSIDQMRDVYIVQCLMETDLYKLLKTQRLSNDHICYFLYQILRGLKYIHSANVLHRDLKPSNLLLNKTCDLKICDFGLARIADPEHDHTGFLTEYVATRWYRAPEIMLNSKGYTKSIDIWSVGCILAEMLSNRPIFPGKHYLDQLNHILGVLGSPSRDDLECIINEKARNYLESLPFKPNVPWAKLFPNADALALDLLGKMLTFNPHKRIPVEEALAHPYLEQYYDPGDEPVAEVPFRINMENDDISRDALKSLIFEETLKFKERQPDNAP

Assays:
Conditions in all cases: with arrb2_human ARRB2, P32121
[1] = variants of: B1
[2] = variants of: B1; remark: listed apart in the source
[3] = variants of: B1; remark: listed apart in the source

Variant	effect of a mutation on the interaction [1]	effect of a mutation on the interaction [2]	effect of a mutation on the interaction [3]
MEEFNSSGSVVNGTGSTEVPQSNAEVIRGQIFEVGPRYIKLAYIGEGAYGMVVSADDTLTNQRVAIKKISPFEHQTYCQRTLREITILTRFKHENIIDIRDILRVDSIDQMRDVYIVQCLMETDLYKLLKTQRLSNDHICYFLYQILRGLKYIHSANVLHRDLKPSNLLLNKTCDLKICDFGLARIADPEHDHTGFLEEYVATRWYRAPEIMLNSKGYTKSIDIWSVGCILAEMLSNRPIFPGKHYLDQLNHILGVLGSPSRDDLECIINEKARNYLESLPFKPNVPWAKLFPNADALALDLLGKMLTFNPHKRIPVEEALAHPYLEQYYDPGDEPVAEVPFRINMENDDISRDALKSLIFEETLKFKERQPDNAP [T198E]	disrupting interaction	disrupting interaction strength	
MEEFNSSGSVVNGTGSTEVPQSNAEVIRGQIFEVGPRYIKLAYIGEGAYGMVVSADDTLTNQRVAIKKISPFEHQTYCQRTLREITILTRFKHENIIDIRDILRVDSIDQMRDVYIVQCLMETDLYKLLKTQRLSNDHICYFLYQILRGLKYIHSANVLHRDLKPSNLLLNKTCDLKICDFGLARIADPEHDHTGFLTEEVATRWYRAPEIMLNSKGYTKSIDIWSVGCILAEMLSNRPIFPGKHYLDQLNHILGVLGSPSRDDLECIINEKARNYLESLPFKPNVPWAKLFPNADALALDLLGKMLTFNPHKRIPVEEALAHPYLEQYYDPGDEPVAEVPFRINMENDDISRDALKSLIFEETLKFKERQPDNAP [Y200E]	disrupting interaction		decreasing interaction
